Assay results from US20250382588A1, “CHIMERIC AAV AND USES THEREOF” (priority 2023, published 2025).
Residue numbers refer to the chain shown, from its start. In names and notes the source's numbering stands.

Test system: striatal D1 MSNs (striatonigral projection neurons)
Assay: Retrograde labeling of striatonigral projection neurons after AAV injection into the SNr
Format: in vivo, mice
Conditions: AAV8R capsid mutants; numbers of labeled neurons per animal
Description: To improve efficiency, multiple rounds of mutations of AAV capsids were performed on a series of different serotypes. Mutations were introduced at three sites in the AAV8 capsid protein to make AAV8R, including N385D, insertion of […] (SEQ ID NO: 31) at position 588, and TS711-712IN. Two additional mutations of V183E and N411S were incorporated into the AAV8R12 capsid protein (FIG. 1A). The labeling pattern of the AAV8R12 capsid and G88 promoter combination was determined.
First, the polypeptide fragment RGNLADODYTKTARQAATAD (SEQ ID NO.: 31) was inserted at the N587-R588 position; two other point mutations of the AAV2 Cap protein were made to develop rAAV2-retro. Similar mutations were then placed at equivalent positions for four other AAV serotypes (FIGS. 1A-IC and 25, TABLE 1), AAV1/5/6/8 (FIG. 1A). […] When administered into the SNr, 4.86±0.22 times EYFP positive MSNs in mice infected by AAV8R-hSyn-EYFP were observed as compared to those infected by rAAV2-retro-hSyn-EYFP (FIG. 2A-2C).
Baseline infectivity of rAAV2-retro was approximately 0.2±0.03×10^4 cells per striatal hemisphere (using a hSyn promoter) (TABLE 2). […] Compared to the current standard retrograde AAV, rAAV2-retro, AAV8R12 labeled 7.72±0.78-times more MSNs after nigral delivery (FIG. 2B-2C, TABLE 1). […] The AAV8R12 was generated using the AAV8R plasmid as a template.
Mice were anesthetized with sodium pentobarbital (Nembutal; 80 mg/kg, i.p.), and then placed into a stereotaxic device (KOPF). Eye cream was applied on both corneas to avoid dehydration. The skull above the targeted areas was thinned with a dental drill and carefully removed. Injections were conducted with a 10 μL syringe connected to a 33-Gauge needle (Neuros; Hamilton), using a microsyringe pump (Legato 130, KD Scientific). A total volume of 200 nL virus was injected into the SNr at a speed of 20 nL/min. The coordinates for the SNr were 3.4 mm posterior, 1.3 mm lateral, 4.8 mm ventral to the bregma.
HEK293T cells (ATCC) were co-transfected by calcium phosphate with an AAV vector plasmid, an AAV Rep-Cap plasmid (rAAV2-retro, AAV1R, AAV5R, AAV6R, AAV8R, and AAV8R1-14), and the pAdDeltaF6 helper plasmid (Addgene, 112867) harboring the adenoviral genes required for the AAV life cycle. HEK293T cells grown in 15 cm cell culture dishes were co-transfected with the mixture of three plasmids (1:1:1) at 80% confluency. 48-72 hours post-transfection, cells were collected and resuspended in a buffer containing 150 mM NaCl and 100 mM Tris-HCl (pH 8.0). Cells were lysed by repeated freeze-thaw cycles in liquid nitrogen and a 37° C. water bath. AAV particles were purified and concentrated using Millipore Amicon 100K columns (Merck Millipore, UFC910008). Encapsidated viral DNA was quantitated by qPCR (Thermo Fisher) with primers recognizing the viral WPRE and/or ITR sequences following denaturation of the AAV particles using Proteinase K. Titers were calculated as genome copies per milliliter.
Images were acquired using a confocal microscope (Carl Zeiss, LSM880) and an Axiolmager.Z1 microscope with apotome (Carl Zeiss). Brain structures were identified microscopically and in digital photos using a mouse brain atlas. To analyze the number of EYFP+ cells in the striatum, slices from rostral to caudal striatum were used. Every sixth section was analyzed, and numbers of EYFP+ cells were multiplied by six to acquire the approximate total number and mean number of cells per animal. Images were processed using ImageJ (NIH, USA), and final quantifications were independently performed manually by two blinded experimenters.

B1: AAV8R4: AAV8R capsid mutant R490Q, SEQ ID NO: 5 (protein)
chain: MAADGYLPDWLEDNLSEGIREWWALKPGAPKPKANQQKQDDGRGLVLPGYKYLGPFNGLDKGEPVNAADAAALEHDKAYDQQLQAGDNPYLRYNHADAEFQERLQEDTSFGGNLGRAVFQAKKRVLEPLGLVEEGAKTAPGKKRPVEPSPQRSPDSSTGIGKKGQQPARKRLNFGQTGDSESVPDPQPLGEPPAAPSGVGPNTMAAGGGAPMADNNEGADGVGSSSGNWHCDSTWLGDRVITTSTRTWALPTYNNHLYKQISNGTSGGATNDNTYFGYSTPWGYFDFNRFHCHFSPRDWQRLINNNWGFRPKRLSFKLFNIQVKEVTQNEGTKTIANNLTSTIQVFTDSEYQLPYVLGSAHQGCLPPFPADVFMIPQYGYLTLNDGSQAVGRSSFYCLEYFPSQMLRTGNNFQFTYTFEDVPFHSSYAHSQSLDRLMNPLIDQYLYYLSRTQTTGGTANTQTLGFSQGGPNTMANQAKNWLPGPCYRQQQVSTTTGQNNNSNFAWTAGTKYHLNGRNSLANPGIAMATHKDDEERFFPSNGILIFGKQNAARDNADYSDVMLTSEEEIKTTNPVATEEYGIVADNLQRGNLADQDYTKTARQAATADVNSQGALPGMVWQNRDVYLQGPIWAKIPHTDGNFHPSPLMGGFGLKHPPPQILIKNTPVPADPPTTFNQSKLNSFITQYSTGQVSVEIEWELQKENSKRWNPEIQYTSNYYKSINVDFAVNTEGVYSEPRPIGTRYLTRNL
Labeling Efficiency in Striatonigral Pathway: + (<5 k)

B2: AAV8R9: AAV8R capsid mutant V125I + F536Y, SEQ ID NO: 10 (protein)
chain: B1 chain with V125I, Q490R, F536Y
Labeling Efficiency in Striatonigral Pathway: + (<5 k)

B3: AAV8R11: AAV8R capsid mutant V125I + T495A, SEQ ID NO: 12 (protein)
chain: B1 chain with V125I, Q490R, T495A
Labeling Efficiency in Striatonigral Pathway: + (<5 k)

B4: AAV8R10: AAV8R capsid mutant V125I + A606S, SEQ ID NO: 11 (protein)
chain: B1 chain with V125I, Q490R, A606S
Labeling Efficiency in Striatonigral Pathway: + (<5 k)

B5: AAV8R6: AAV8R capsid mutant F536Y, SEQ ID NO: 7 (protein)
chain: B1 chain with Q490R, F536Y
Labeling Efficiency in Striatonigral Pathway: + (<5 k)

B6: AAV8R5: AAV8R capsid mutant V125I, SEQ ID NO: 6 (protein)
chain: B1 chain with V125I, Q490R
Labeling Efficiency in Striatonigral Pathway: + (<5 k)

B7: AAV8R1: AAV8R capsid mutant V183E, SEQ ID NO: 2 (protein)
chain: B1 chain with V183E, Q490R
Labeling Efficiency in Striatonigral Pathway: + (<5 k)

B8: AAV8R7: AAV8R capsid mutant A606S, SEQ ID NO: 8 (protein)
chain: B1 chain with Q490R, A606S
Labeling Efficiency in Striatonigral Pathway: + (<5 k)

B9: AAV8R14: AAV8R capsid mutant V125I + A606S + T495A, SEQ ID NO: 15 (protein)
chain: B1 chain with V125I, Q490R, T495A, A606S
Labeling Efficiency in Striatonigral Pathway: ++ (5 k-10 k)

B10: AAV8R8: AAV8R capsid mutant T495A, SEQ ID NO: 9 (protein)
chain: B1 chain with Q490R, T495A
Labeling Efficiency in Striatonigral Pathway: + (<5 k)

B11: AAV8R13: AAV8R capsid mutant V125I + F536Y + T495A, SEQ ID NO: 14 (protein)
chain: B1 chain with V125I, Q490R, T495A, F536Y
Labeling Efficiency in Striatonigral Pathway: ++ (5 k-10 k)
